In paper PMC11724954:

target: T1, QCP (bacteriophage Qβ coat protein) (bacteriophage Qβ, UniProt P03615 2-133); test: SPR
T1 sequence: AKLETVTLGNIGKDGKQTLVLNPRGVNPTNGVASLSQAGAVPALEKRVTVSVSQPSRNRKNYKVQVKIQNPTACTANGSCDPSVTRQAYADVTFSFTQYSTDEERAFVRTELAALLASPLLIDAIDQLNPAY

Binder | Kd [nM]
CCAUUAGCUAAGCUAAUGGAAAAAAAAAAAAAAAAAAAAAAAA (structured_RNA) [A14] | 17.8
CCUUUAGCUAAGCUAAUGGAAAAAAAAAAAAAAAAAAAAAAAA (structured_RNA) [A16] | 28.9
CCCUUAGCUAAGCUAAGUGAAAAAAAAAAAAAAAAAAAAAAAA (structured_RNA) [A18] | 16
CCGUUAGCUAAGCUAAUGGAAAAAAAAAAAAAAAAAAAAAAAA (structured_RNA) [A15] | 86.2
CCUCUAGCUAAGCUAUAGGAAAAAAAAAAAAAAAAAAAAAAAA (structured_RNA) [A17] | 90.8
CCCUUAGCUAAGCUAAGGUAAAAAAAAAAAAAAAAAAAAAAAA (structured_RNA) [A19] | 80.4
